Measured values: the DeepSol protein solubility set

Experiment: soluble on expression in E. coli; label from the status in PepcDB or PDB records

Row | Sequence | soluble on expression in E. coli
1 | MGSDKIHHHHHHQAIAPAPADPAAALMPSPWSGSSGELGYASAHGNSTTDSLNGRIRLRYTDGDWIHSLDATALRSSSEYTNTNDDGSVTRERQTTAERYTGSAGSALQLGEHRQLTATGRYEHDDFATYDRLATFGIGYGTRLIDADRFYLDAQIGPGIRRAHNSDDDRNETGLIGRGLFDLKYTVTDNTDLINTLLVESGEYNTYAQNDFGVQVSMNSHFALKAAWQMRHNSDVSEGDKKTDTLTTVNLVYTFK | not soluble
2 | MGSDKIHHHHHHMSDQRYNLRGVSASKEDVHNAIKNIDKGIFPKAFCKIIPDILGGDPEYCNIMHADGAGTKSSLAYMYWKETGDLSVWKGIAQDALIMNIDDLLCVGAVDNILVSSTIGRNKLLVPGEVISAIINGTDELLAELREMGVGCYATGGETADVGDLVRTIIVDSTVTCRMKRSDVIDNKNIQGGDVIVGLASSGQATYEKEYNGGMGSNGLTSARHDVFSKYLAKKYPESYDAAVPKELVYSGGLKLTDKIEELGIDAGKMVLSPTRTYAPVIKVLLDKLRSQIHGMVHCSGGAQTKVMHFVENKRVTKDNLFPIPPLFRTIQEQSGTDWSEMYKVFNMGHRMEIYIAPEHAEEVIGISKSFGIDAQIVGFVEEADKNELIIESEKGRFTY | not soluble
3 | MGSDKIHHHHHHMRKMMNEQLPISKSSPLKARFYDYPYFTYPWHFHTEYEIIYVKEGTGMRFVGNNAEKYADGDILLLGSDLPHYMKSDEVYRQEGSTLRTTGTIIQFEKDFMHHAFNYYPHFMKIKNLLEEAQRGIYFPAGCSPRLVDLLESIPVETGVDQITSFLQLLKEMANVASRSVLSTSDFENDIIYDGSRIDKIIVYLNKNYTRQIDLNEISSLAAMNPAAFCRFFKSKTGKSFKNYILEMRIGYACKLLLMGDMNISQISVECGFDTISHFNKSFKKHTGFTPSYYKRMMLAE | not soluble
4 | MGSDKIHHHHHHMDEIEKSLQNWGQQLENVHLPRWHELPDIELYMDQVITLIEKYLSPLITLEKHTLLTSSMVNNYVKHGLIPAPVKKRYNQKHLAFLIAITLLKQVLTLPEIKQGILFQGATVGIREAYNLFCQEQERAIYVIAAQAQEKEVQAKSQEPMGIEYLAVKAATMSFATKMFSEKVIELEQEYLKEMDEMTHE | not soluble
5 | MRTLPSVLAAHLASGATTLCFAWRVTRRDGLVTGFTDHDRDLVVDGVTCKAASGISGSQSTLASGLSVTGAEVSGALSHDALSEDDLAAGLYDGAAIDHLLVNWQDPAQVLLLRRGTIGEVRAQDGVFTAEIRSLSDGLNQTRGRLLSSSCDADLGDARCGVDLTLPAHAASATVVAVEGALSLRVTGLSAFAQGAFARGRARLSSGANAGFVTEVKAHLVDAEGVLLRLWQRPPFAVAEGDGITLTAGCDKQLATCRDRFSNALNFRGFPHMPGNDFVIAVAIAGEGGYDGSLLE | soluble
6 | MGHHHHHHSHMDTPENVLQMLEAHMQSYKGNDPLGEWERYIQWVEENFPENKEYLITLLEHLMKEFLDKKKYHNDPRFISYCLKFAEYNSDLHQFFEFLYNHGIGTLSSPLYIAWAGHLEAQGELQHASAVLQRGIQNQAEPREFLQQQYRLFQTRLTETHLPAQAR | not soluble
7 | MAAIDLNSDLGESYGAWRMGDDEAMLAIVSSANIACGFHAGDPAGIYRTVKAAAEKGVVVGAHVSYPDRVGFGRRDLDATSEELIADVIYQIGALKGVAAAAGTTVRYVKPHGALYNRIANDAKQGQAVIDGIKAIDPSLVLMGLANAPILDLARKAGLAVVAEAFADRAYTPEGQLVSRREAGAVLHDAAKIAERMVQLAREGTLEAIDGSIIKIEAQSICVHGDSPGAVAIAQEIRRRFEADGIAIRSFASDRLEHHHHHH | not soluble
8 | QKRAWITAPVALREGEDLSKKNPIAKIHSDLAEERGLKITYKYTGKGITEPPFGIFVFNKDTGELNVTSILDREETPFFLLTGYALDARGNNVEKPLELRIKVLDINDNEPVFTQD | soluble
9 | AHHHHHHGSKKITISSLLLLLLISTNLNLAYDSQESGIKNIIILIGDGMGMSHVQITKLVYGHLNMEEFPIIGFELTESLSGEVTDSAAAGTAIATGVKTYNRMISVTNITGKVTNLTTLLEIAQVLGKSTGLVTTTRITHATPAVFASHVPDRDMEEEIARQLIAHRVNVLLGGGRKKFDENTLKMAKEQGYNIVFTKEELEKAEGEFILGLFADSHIPYVLDRKPEDVGLLEMTKKAISILEKNPNGFFLMIEGGRIDHAAHENDIASVVAETKEFDDVVGYVLEYAKKRGDTLVIVLADHETGGLGLGLTYGDAINEDVIRNINASVSKIASEIRATNDIKRVIKKYTGFELTEDEINYIEEAINLADEYALQNAIADIINKRVGVGFVSHKHTGAPVSLLAYGPGAENFAGFLHHVDTAKLIAKLMLFGKKDIPVTILGISGVKGDITGDFKVDEQDAYVTLMMLLGERVDTELERKVDMNNNGIIELGDVLLILQES | soluble
10 | GEPPTQKPKKIVNAKKDVVNTKMFEELKSRLDTLSQEVALLKEQQALQTVCLKGTKVHMKCFLAFTQTKTFHEASEDCISRGGTLSTPQTGSENDALYEYLRQSVGNEAEIWLGLNDMAAEGTWVDMTGARIAYKNWETEITAQPDGGKTENCAVLSGAANGKWFDKRCRDQLPYICQFGIV | soluble
11 | MSLETFTGIRYETAVERVANGGFTDLPRQIEWRKALAAFQSAPIFGHGWNSFAQQTFLINAEQHNIHDNLLSNLFTHSHNIVLQLLAEMEGHHHHHH | not soluble
12 | GPGSMSVSATPYKRQDAITAKTVLLGESAVGKSSIALRFARNEFSSNQETTIGAAFLSRSVTVSATSQSGGGGAVANAASGTIKFEIWDTAGQERYRSLAPIYYRGACGALVVYDITSAESLKKAQMWMRELRANADPTLLIILVGNKKDMESLRQVSYEDGAAVAQEEDVNGFFEVSAKENVNVEEVFAKLARLLLEHGLGANSGPGSLSGPRGAQRLEPPTRQQKKEGGCAC | not soluble
13 | MSFIAYPCAVPTQRQVPMSPPTTPRILMKLCPIMEIPIIGGPRQNGTYNVFIFDLKIRKFIPHRCSSCAVKILEDHLSPMYASGSVIFMRNEVTQEVEQYVYSFETGGFQQVDYPELVYSAEKFTESSFIVMIENSDGKKVLIERGGNEAVRKLEYRLGKCVEMPKVEVQLLAAEEFDDADPWSDNDSLSSEHLDYNETLPAFKTTFCQDFQMYVLYIITSRGHYEKYIYNQSTSQFEILDCEKCPDTTREVDLLPKYAEFCEEIQAYVIHVFNSFTDRMEQYVFDSKIQGFVEVNQPELKYDSSKDQDPTSSIFFVLKGTTVIMRGAQGRLKKEVYCSIKKHFVEVPNSVIKSFDTQFMEKKQKMDKKKKAKKIKKSKKKASKESQELDVLVEKIRLCDDPFSDGPSCSTSPDIPEDAPDDGMSILKQKFVESLTTLYGGSLPPYVQKELEQI | not soluble
14 | MGSDKIHHHHHHMPENLIIPSVDLRIGALEEYNRRQKEKAHHRQKGPKPRPCITLSREFGCEGYPVAESLLKLMPEQTGDQWVLVDKDVLDEVARRHHVSREILEALGTKNRILSQVLATFSERWKTDHEYFELLCSHIVSLAEQGNVIIVGLGGAIITHHREHCYDFRIFGSREFKIGSICQRMNLPPDKAADLIEKQQAQIDNFTREFLFEDEANPAIYDLLFNNDRMCPETMARTIADYVAGRIAAGTADKRHV | not soluble
15 | QETEDPACCSPIVPRNEWKALASECAQHLSLPLRYVVVSHTAGSSCNTPASCQQQARNVQHYHMKTLGWCDVGYNFLIGEDGLVYEGRGWNFTGAHSGHLWNPMSIGISFMGNYMDRVPTPQAIRAAQGLLACGVAQGALRSNYVLKGHRDVQRTLSPGNQLYHLIQNWPHYRSP | soluble
16 | MPLHVVEQPAFLVAVVPDMVGGRLSSHDKDLLGLARKLAGNDGAVLAVVFGEHKESAFDSAGVDRLLHLSGGEYDGYAPEQRILALRNLENQLAPRHWLFPDSRNGGGELGRRLAAALGERPAGRVWQVEDGRCIGRAGAGREDIQRALPRLLLAAAECAEPVSETRHEVRELHMAEQVARNLPRIEDLGPVAVDPA | not soluble
17 | DDSLGEAVTTRAEALTIPAVLRARNLLSTTVARTPLVCDGTLPPFVPVAAPPGAATMQTPFHRMLATADDLLFNGVACWALDRDESGTCIGAIHIPLDTWQIEENTVRVNGKAVDPMEVCIFVGIHGGLLTHASETFTDARNLVRAAARVAQNPAALIELRQTNNAQLSPDDVDRIINGYVAARRGRNSGVGFSSSGLEVHEHEMAKENLLIEGRNAAAVDVARAMNVPAAFIDATVGGTSLSYQNAASRMIELVTFGVEPLMSAIEARLNQPDMHADHLANPLKFDPAALLDAIPTTPTIGAQPHGENS | soluble
18 | MFNNILVVCVGNICRSPTAERLLQRYHPELKVESAGLGALVGKGADPTAISVAAEHQLSLEGHCARQISRRLCRNYDLILTMEKRHIERLCEMAPEMRGKVMLFGHWDNECEIPDPYRKSRETFAAVYTLLERSARQWAQALNAEQV | not soluble
19 | ENKILKIEKGTSGWGGPLYIKKEGNRNKILSMTAGGIHEVTLKIKELLGCEIVDGFKTGVSDEEVAVVIIDCGGTARCGVYPKKKIPTINVNPVGKTGPLAKFITEEYYVSDVNPNCISVVDGEDMPQKSQENKSENKSSIRKPDNYDEVKSKAQGEYAKKNIILSIGQGAGQVVSKFYDAGRDTIQMVMNN | not soluble
20 | MQQKLENIKFVITDVDGVLTDGQLHYDANGEAIKSFHVRDGLGIKMLMDADIQVAVLSGRDSPILRRRIADLGIKLFFLGKLEKETACFDLMKQAGVTAEQTAYIGDDSVDLPAFAACGTSFAVADAPIYVKNAVDHVLSTHGGKGAFREMSDMILQAQGKSSVFDTAQGFLKSVKSMGQLEHHHHHH | soluble
21 | GPMRRERGRQGDSSSCERQVDRVNLKPCEQHIMQRIMGEQEQYDSYDIRSTRSSDQQQRCCDELNEMENTQGCMCEALQQIMENQCDRLQDRQMVQQFKRELMSLPQQCNFRAPQRCDLDVSGGRCS | soluble
22 | MRKIGLLFITIFCLLACKNNSSRISLEGEIKGLTNDTLYLYGTDALYDRIDTIYAEKGKFSYNLNIDSTVIDTLTTAVLLINGHVEYPVFLDKGNQITIKGNIDDLSYLDINGNEPNTSLSLFMKEQRGLGSASDKMMQEKAETFIRQHNSSLASVYLLDKYFVQTPQPDYIKIKEITEAMTGALLDRPYIENISDYIDQLEKVTVGKSAPYFSLPNEKGEKLSRSAERFRNRYLLLNFWASWCDPQPEANAELKRLNKEYKKNKNFAMLGISLDIDREAWETAIKKDTLSWDQVCDFTGLSSETAKQYAILTLPTNILLSPTGKILARDIQGEALTGKLKELLKTEEKKTGKSIR | not soluble
23 | GSTAAEKPKLHYFNARGRMESTRWLLAAAGVEFEEKFIKSAEDLDKLRNDGYLMFQQVPMVEIDGMKLVQTRAILNYIASKYNLYGKDIKERALIDMYIEGIADLGEMILLLPVCPPEEKDAKLALIKEKIKNRYFPAFEKVLKSHGQDYLVGNKLSRADIHLVELLYYVEELDSSLISSFPLLKALKTRISNLPTVKKFLQPGSPRKPPMDEKSLEEHRKIFRF | soluble
24 | MIGPENCNSVSEPIAYVIILAGGRSSRMGYDKAQVMVDGRRLIDLCLESIASVHAHPIVVSGQDLQLTAAVTQVMEEPAFGGPVAGIAAGMRCCDTKAGLIGVIAVDAPRSGNYLNQLRRVVLTHPEVGVAHAVVEGYDQPLLAVWRYEALTQALHALGSPRNVAAKRLLRSATTPVIAVPVDSSARDYDTVAELSALGRVRLRLEHHHHHH | not soluble
25 | MTSKQSVSQCVKPPRPPAWIMQPPPDWQTPLNGIISPSERGLEHHHHHH | not soluble
